Experimental findings from US20210062213A1 (UT BATTELLE, published 2021) are described below.

The chains are these.
B1: nVenus-U1-70 k (U1 SMALL NUCLEAR RIBONUCLEOPROTEIN-70K fused with the N-terminal fragment of Venus) (other, Arabidopsis, UniProt Q42404 1-427, looked up)
chain: MGDSGDPFLRNPNAAVQARAKVQNRANVLQLKLMGQSHPTGLTNNLLKLFEPRPPLEYKPPPEKRKCPPYTGMAQFVSNFAEPGDPEYAPPKPEVELPSQKRERIHKLRLEKGVEKAAEDLKKYDPNNDPNATGDPYKTLFVSRLNYESSESKIKREFESYGPIKRVHLVTDQLTNKPKGYAFIEYMHTRDMKAAYKQADGQKIDGRRVLVDVERGRTVPNWRPRRLGGGLGTSRVGGGEEIVGEQQPQGRTSQSEEPSRPREEREKSREKGKERERSRELSHEQPRERSRDRPREDKHHRDRDQGGRDRDRDSRRDRDRTRDRGDRDRRDRDRGRDRTSRDHDRDRSRKKERDYEGGEYEHEGGGRSRERDAEYRGEPEETRGYYEDDQGDTDRYSHRYDKMEEDDFRYEREYKRSKRSESREYVR
notes: BiFC fusion transiently expressed in Arabidopsis protoplasts; also called AT3G50670; not shown: N-terminal fragment of Venus (nVenus) from vector pSATI-nVenus-C
B2: nVenus-U2B (U2 SMALL NUCLEAR RIBONUCLEOPROTEIN B fused with the N-terminal fragment of Venus) (other, Arabidopsis, UniProt O22922 1-232, looked up)
chain: MLTADIPPNQSIYIQNLNERIKKEELKRSLYCLFSQFGRILDVVALKTPKLRGQAWVTFSEVTAAGHAVRQMQNFPFYDKPMRLQYAKAKSDCLAKAEGTFVPKDKKRKQEEKVERKREDSQRPNTANGPSANGPSANNGVPAPSFQPSGQETMPPNNILFIQNLPHETTSMMLQLLFEQYPGFKEIRMIDAKPGIAFVEYEDDVQASIAMQPLQGFKITPQNPMVISFAKK
notes: BiFC fusion transiently expressed in Arabidopsis protoplasts; also called AT2G30260; not shown: N-terminal fragment of Venus (nVenus) from vector pSATI-nVenus-C

Common to all, as to experiment: bimolecular fluorescence complementation (BiFC) in Arabidopsis protoplasts
Experiment [1] has as its target T1, cCFP-DGCR14/ESS2 (human DGCR14/ESS2 fused with the C-terminal fragment of CFP) (Homo sapiens, UniProt Q96DF8 1-476).
T1 construct: BiFC fusion transiently expressed in Arabidopsis leaf mesophyll protoplasts; also called Has DGCR14/ESS2; NM_022719; not shown: C-terminal fragment of CFP (cCFP) from vector pSATI-cCFP-C
T1 sequence: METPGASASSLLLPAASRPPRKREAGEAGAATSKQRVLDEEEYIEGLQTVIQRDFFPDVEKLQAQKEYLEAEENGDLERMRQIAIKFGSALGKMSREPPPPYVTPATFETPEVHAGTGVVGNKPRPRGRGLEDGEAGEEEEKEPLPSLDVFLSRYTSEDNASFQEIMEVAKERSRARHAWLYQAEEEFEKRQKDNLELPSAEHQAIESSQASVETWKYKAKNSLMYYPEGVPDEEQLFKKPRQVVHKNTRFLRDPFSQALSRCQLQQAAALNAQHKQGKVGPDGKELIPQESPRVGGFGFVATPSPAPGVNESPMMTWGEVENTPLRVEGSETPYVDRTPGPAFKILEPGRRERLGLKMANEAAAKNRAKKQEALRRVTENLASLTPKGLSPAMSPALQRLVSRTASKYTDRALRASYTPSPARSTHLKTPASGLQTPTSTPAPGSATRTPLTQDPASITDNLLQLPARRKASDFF
The protocol:
(§1) Protoplast isolation and transfection were performed as previously described (Xie et al. (The Plant Cell 30, 1645-1660 (2018)). For subcellular localization, 8 μg of DGCR14l-YFP and DGCR14/ESS2-YFP constructs were co-transfected with 2 μg of the nuclear marker construct (mCherry-)VirD2NLS), respectively, into 100 μl of protoplasts (˜2×10⁴ cells) to determine their subcellular localizations. For colocalization, paired constructs (5 μg each) were co-transfected into 100 μl of protoplasts. For BiFC, paired genes were cloned into pSATI-nVenus-C (fuse with nVenus) and pSATI-cCFP-C (fuse with cCFP), respectively. Then their expression cassettes were cloned into pUC119 (pUC-RCS) vector using AscI for transient expression in protoplasts. The generated constructs (4 μl of nVenus construct and 4 μl of cCFP construct) were co-transfected with 2 μl of the nuclear marker construct (mCherry-VirD2NLS) into 100 μl of protoplasts. After 14 h incubation under weak light at room temperature, protoplasts were collected and resuspended in cold W5 solution (2 mM MES pH 5.7, 154 mM NaCl, 125 mM CaCl₂, and 5 mM KCl) to subject to microscopy. Images were collected using a Zeiss LSM 710 confocal microscope, equipped with 514 and 561 nm laser lines for excitation of YFP and mCherry, respectively. Images were processed using Zen software (Zeiss).
(§2) To further test the association of DGCR14l and DGCR14/ESS2 with spliceosome, a bimolecular fluorescence complementation (BiFC) assay was performed in Arabidopsis protoplasts. In this assay, DGCR14 orthologs and U1-70 k were fused with split YFP (C-terminal fragment of CFP (cCFP) and N-terminal of Venus (nVenus)), and co-expressed in protoplasts. The interaction between two proteins will bring cCFP and nVenus together to form a functional YFP, which then leads to fluorescence. […] In contrast, no YFP signal was detected from DGCR14l-U2B or DGCR14/ESS2-U2B interaction (FIG. 2C), further supporting DGCR14's selectivity on spliceosome components.

Experiment [2] deals with B2. The protocol: as §1, §2
In experiment [3] the target is B1. The protocol: as §1, §2

Take B1: the binding result in experiment [1] is “binds”. As to B2, the binding result in experiment [1] is “no binding”.

B3: cCFP-DGCR14l (Arabidopsis thaliana DGCR14-like fused with the C-terminal fragment of CFP) (other)
chain: MFLSPGHSPRQISSPSPSSYSDDTLRSTPRSSSSEIIPRNPRKRMRVLDEDAYVEAIEKIIERDYFPDITKLRDRLDWIQAVKTRDPIQIRDAQLKIIERRGKKANHHVGDTEGKTQTPGSTFLRNFTPLDEFDGKTPRTPGVSGREFHGVEVDAGDGDEDIDLNLSLDEFFRRYTSEDNESFSKILEKVNRKKKEKYGFLLEGEKEDGKSIEDVKRDRITDGYGTSDQPPSTLEGWKYTAKNLLMYHPADRGEAPLTEAERAVRLLGLTKEIVKGNTRFHGKTMDSRPREDGSVEILYTPIAGSSPMHISGRDRDKSKRYDLDDLRKTPNPFYVESDKRADNGYSFVRTPSPAPGLDESPFITWGEIDGTPMRLDLEDTPIDIGGSADGPHYNIPSAPPRDVRAHSLSRDASRKLRERSNSMFKKPPLPSPHRSGSASPNVRTLSPAAQKFFRKAIAKSSSTVDESLRASYRGASPRGASPGAVTPKSVRSISRFGKDGTSSETRSP
notes: BiFC fusion transiently expressed in Arabidopsis leaf mesophyll protoplasts; also called Ath DGCR14l; Arabidopsis DGCR14; not shown: C-terminal fragment of CFP (cCFP) from vector pSATI-cCFP-C
Take B3: the values for the binding result in experiment [2] and in experiment [3] were “no binding” and “binds”, respectively.
